Residue numbers refer to the chain shown, from its start. Where “and” joins values, the source holds several entries; their conditions need not be identical. Equal values may be shown once.
T1: mouse aquaporin 3 (AQP3) on cells (mouse, UniProt Q8R2N1 1-292)
T1 construct: whole, on cells; Water channel membrane protein; also called mouse AQP3; AQP3 on PAM212 cells
T1 sequence (looked up): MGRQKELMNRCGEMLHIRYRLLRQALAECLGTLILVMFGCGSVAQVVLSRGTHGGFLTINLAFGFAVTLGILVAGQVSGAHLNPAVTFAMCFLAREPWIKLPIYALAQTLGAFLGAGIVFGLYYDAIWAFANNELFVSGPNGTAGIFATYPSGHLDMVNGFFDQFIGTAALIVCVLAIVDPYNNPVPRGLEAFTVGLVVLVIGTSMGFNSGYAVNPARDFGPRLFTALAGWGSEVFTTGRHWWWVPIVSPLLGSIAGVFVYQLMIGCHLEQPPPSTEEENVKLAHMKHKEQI

T2: oligopeptide ATYPSGHLDM (SEQ ID NO: 1) (human and mouse)
T2 construct: Synthetic peptide; positions 148 to 157 of the human AQP3 polypeptide, identical in mouse; also called peptide used for immunization; oligopeptide 5
T2 peptide: ATYPSGHLDM

T3: human aquaporin 3 (AQP3) on cells (human, UniProt Q92482 1-292)
T3 construct: whole, on cells; Water channel membrane protein; also called human AQP3; AQP3 on HaCaT cells
T3 sequence (looked up): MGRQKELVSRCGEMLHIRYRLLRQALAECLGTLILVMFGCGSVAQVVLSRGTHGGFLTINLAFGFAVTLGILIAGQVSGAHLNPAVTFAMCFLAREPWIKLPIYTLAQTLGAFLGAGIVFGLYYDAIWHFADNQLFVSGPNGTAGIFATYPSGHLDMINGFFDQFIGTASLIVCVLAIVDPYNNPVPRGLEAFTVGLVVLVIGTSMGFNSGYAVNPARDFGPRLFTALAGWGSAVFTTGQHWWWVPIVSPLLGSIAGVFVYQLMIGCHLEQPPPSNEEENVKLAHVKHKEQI

T4: oligopeptide SRGTHGGFL (SEQ ID NO: 2)
T4 construct: Synthetic peptide of AQP3 Loop A; also called Loop A peptide; control peptide
T4 peptide: SRGTHGGFL

T5: oligopeptide AGIFATYPSGHLDM (SEQ ID NO: 106)
T5 construct: Synthetic peptide, part of Loop C of AQP3
T5 peptide: AGIFATYPSGHLDM

T6: oligopeptide ATYPSGHLD (SEQ ID NO: 101)
T6 construct: Synthetic peptide, part of Loop C of AQP3
T6 peptide: ATYPSGHLD

T7: oligopeptide PSGHLDM (SEQ ID NO: 98)
T7 construct: Synthetic peptide, part of Loop C of AQP3
T7 peptide: PSGHLDM

T8: oligopeptide ATYPSG (SEQ ID NO: 104)
T8 construct: Synthetic peptide, part of Loop C of AQP3
T8 peptide: ATYPSG

T9: oligopeptide TAGIFATYPSGHLDM (SEQ ID NO: 105)
T9 construct: Synthetic peptide, part of Loop C of AQP3
T9 peptide: TAGIFATYPSGHLDM

T10: oligopeptide GIFATYPSGHLDM (SEQ ID NO: 107)
T10 construct: Synthetic peptide, part of Loop C of AQP3
T10 peptide: GIFATYPSGHLDM

T11: oligopeptide GHLDM (SEQ ID NO: 100)
T11 construct: Synthetic peptide, part of Loop C of AQP3
T11 peptide: GHLDM

T12: oligopeptide SGHLDM (SEQ ID NO: 99)
T12 construct: Synthetic peptide, part of Loop C of AQP3
T12 peptide: SGHLDM

T13: oligopeptide SGPNGTAGIFATYPS (SEQ ID NO: 94)
T13 construct: Synthetic peptide, part of Loop C of AQP3
T13 peptide: SGPNGTAGIFATYPS

T14: oligopeptide ATYPSGH (SEQ ID NO: 103)
T14 construct: Synthetic peptide, part of Loop C of AQP3
T14 peptide: ATYPSGH

T15: oligopeptide FATYPSGHLDM (SEQ ID NO: 109)
T15 construct: Synthetic peptide, part of Loop C of AQP3
T15 peptide: FATYPSGHLDM

T16: oligopeptide TYPSGHLDM (SEQ ID NO: 96)
T16 construct: Synthetic peptide, part of Loop C of AQP3
T16 peptide: TYPSGHLDM

T17: oligopeptide IFATYPSGHLDM (SEQ ID NO: 108)
T17 construct: Synthetic peptide, part of Loop C of AQP3
T17 peptide: IFATYPSGHLDM

T18: oligopeptide YPSGHLDM (SEQ ID NO: 97)
T18 construct: Synthetic peptide, part of Loop C of AQP3; first diluted in DMSO
T18 peptide: YPSGHLDM

T19: oligopeptide ATYPSGHL (SEQ ID NO: 102)
T19 construct: Synthetic peptide, part of Loop C of AQP3
T19 peptide: ATYPSGHL

B1: BC-B10 (IgG) (antibody, V domains shown)
VH: QSVEESGGRLVTPGAPLTLTCTVSRFSLSSYAMTWVRQAPGKGLEWIGIINNDVISSTWYASWVKGRFTISKTSTTMELKMTSLTTEDTATYFCARGGTSGYDIWGPGTLVTVSS
VL: AIKMTQTPSPVSAAVGGTVTINCQSSPSVYKNYLSWYQQKPGQPPKLLIYGASTLASGVPSRFKGSGSGTQFTLTISDVQCDDAATYYCAGGYIGSRDIFSFGGGTEVVVK
notes: also called anti AQP3 antibody BC-B10
B2: SC-B6 (IgG) (antibody, V domains shown)
VH: B1 VH with E4K, R25G, S29N, S30N, V54G, T69I, M77V, E78D, S115L
VL: B1 VL with I2Q, K3G, M4P, G67R
notes: also called anti AQP3 antibody SC-B6
B3: BC-H9 (IgG) (antibody, V domains shown)
VH: B1 VH with V3L, A15T, R25G, S29Y, S30T, T34G, V54G, E78D, S115L
VL: B1 VL with I2Q, K3G, M4L, S26G, P41A, I94R, R97S, S101A
notes: also called anti AQP3 antibody BC-H9

Tests used:
[1] = target: T1, mouse aquaporin 3 (AQP3) on cells; assay: fluorescence binding assay on PAM212 cells, 10 µg/mL
Method: (§1) PAM212 cells were reacted with each anti AQP3 antibody at concentrations of none, 1 ng/mL, 10 ng/mL, 100 ng/mL, 1 μg/mL, or 10 μg/mL at 4° C. for 1 hour. After washing the cells, a fluorescent-labeled secondary antibody was added and the reaction was allowed to occur additionally for 1 hour (at 4° C.). By measuring the fluorescence intensity, the binding property of each anti AQP3 antibody to cells was obtained.

[2] = target: T2, oligopeptide ATYPSGHLDM (SEQ ID NO: 1); assay: ELISA on peptide SEQ ID NO:1, IgG, 50% binding response (FIG. 16A)
[3] = target: T3, human aquaporin 3 (AQP3) on cells; assay: fluorescence binding assay on HaCaT cells, 10 µg/mL
Method: as §1, with “HaCaT” for “PAM212”

[4] = target: T4, oligopeptide SRGTHGGFL (SEQ ID NO: 2); assay: ELISA on peptide SEQ ID NO:2 (FIG. 16B)
[5] = target: T5, oligopeptide AGIFATYPSGHLDM (SEQ ID NO: …); assay: ELISA on coated peptide
Method: (§2) To determine the important amino acid residues of an epitope in Loop C involved in binding to specific AQP3 antibody clones, peptides of varying lengths were produced. The sequences of these peptides are shown in column 2 of Table 4.
(§3) The various peptides and AQP3 antibody clones were subjected to ELISA binding analyses. […] The microtiter wells (Costar 2690) were coated with 50 μL of each peptide at 4° C. overnight. The wells were washed 3 times with PBS and blocked with 100 μL of 1% BSA/PBS at 37° C. for 1 hour. Each antibody was adjusted to 1 μg/mL in 1% SBA/PBS as above then serially diluted 1:5 in 1% BSA/PBS. The blocker was discarded and the wells were incubated with 50 μL of antibodies at 37° C. for 1.5 hours. The wells were washed 3 times with PBS and mouse antibodies were detected with 50 μL of goat anti-mouse IgG (H+L) HRP conjugate (ThermoFisher 31438) (1:5,000 in 1% BSA/PBS) and rabbit antibodies were detected with 50 μL of goat anti-rabbit IgG (H+L) HRP conjugate (ThermoFisher 31462) (1:5,000 in 1% BSA/PBS) at 37° C. for 1 hour. The wells were washed 3 times with PBS and developed with 50 μL of HRP substrate at RT for 5 min then stopped with 50 μL of 2N sulfuric acid and binding was measured with a plate reader.

[6] = target: T6, oligopeptide ATYPSGHLD (SEQ ID NO: 101); assay: ELISA on coated peptide
Method: as §2, §3

[7] = target: T2, oligopeptide ATYPSGHLDM (SEQ ID NO: 1); assay: ELISA on coated peptide
Method: as §2, §3

[8] = target: T7, oligopeptide PSGHLDM (SEQ ID NO: 98); assay: ELISA on coated peptide
Method: as §2, §3

[9] = target: T8, oligopeptide ATYPSG (SEQ ID NO: 104); assay: ELISA on coated peptide
Method: as §2, §3

[10] = target: T9, oligopeptide TAGIFATYPSGHLDM (SEQ ID …); assay: ELISA on coated peptide
Method: as §2, §3

[11] = target: T10, oligopeptide GIFATYPSGHLDM (SEQ ID NO: …); assay: ELISA on coated peptide
Method: as §2, §3

[12] = target: T11, oligopeptide GHLDM (SEQ ID NO: 100); assay: ELISA on coated peptide
Method: as §2, §3

[13] = target: T12, oligopeptide SGHLDM (SEQ ID NO: 99); assay: ELISA on coated peptide
Method: as §2, §3

[14] = target: T13, oligopeptide SGPNGTAGIFATYPS (SEQ ID …); assay: ELISA on coated peptide
Method: as §2, §3

[15] = target: T14, oligopeptide ATYPSGH (SEQ ID NO: 103); assay: ELISA on coated peptide
Method: as §2, §3

[16] = target: T15, oligopeptide FATYPSGHLDM (SEQ ID NO: …); assay: ELISA on coated peptide
Method: as §2, §3

[17] = target: T16, oligopeptide TYPSGHLDM (SEQ ID NO: 96); assay: ELISA on coated peptide
Method: as §2, §3

[18] = target: T17, oligopeptide IFATYPSGHLDM (SEQ ID NO: …); assay: ELISA on coated peptide
Method: as §2, §3

[19] = target: T18, oligopeptide YPSGHLDM (SEQ ID NO: 97); assay: ELISA on coated peptide
Method: as §2, §3

[20] = target: T19, oligopeptide ATYPSGHL (SEQ ID NO: 102); assay: ELISA on coated peptide
Method: as §2, §3

[21] = target: T1, mouse aquaporin 3 (AQP3) on cells; assay: fluorescence binding assay on PAM212 cells with AQP3 siRNA (10% of AQP3 expression) against control siRNA, 1 µg/mL (FIG. 19)
Method: The resulting siRNA AQP3 cell line had 10% of the AQP3 expression compared to the control siRNA cell line. The siRNA AQP3 and control siRNA PAM212 cells were reacted with SC—F8, BC—H9, BC—B10, and SC—B6 at the chosen concentration 1 μg/mL at 4° C. for 1 hour. After washing the cells, a fluorescent-labeled secondary antibody was added and the reaction was allowed to occur additionally for 1 hour (at 4° C.). By measuring the fluorescence intensity, the binding property of each anti AQP3 antibody to the two cell lines was obtained.
The result of the above experiment is shown in FIG. 19, wherein the vertical axis represents fluorescence intensity, and the mean fluorescence intensity of each sample is represented by bar height together with standard error.

[22] = target: T1, mouse aquaporin 3 (AQP3) on cells; assay: cell-based or functional assay
[23] = target: T1, mouse aquaporin 3 (AQP3) on cells; assay: fluorescence binding assay on PAM212 cells, 1 ng/mL to 10 µg/mL (FIG. 17A)
Method: as §1

Binder	fold fluorescence intensity over no antibody [1]	EC50 [2]	fold fluorescence intensity over no antibody [3]	binding result [4]	binding signal (plate reader) [5]	binding signal (plate reader) [6]	binding signal (plate reader) [7]	binding signal (plate reader) [8]	binding signal (plate reader) [9]	binding signal (plate reader) [10]	binding signal (plate reader) [11]	binding signal (plate reader) [12]	binding signal (plate reader) [13]	binding signal (plate reader) [14]	binding signal (plate reader) [15]	binding signal (plate reader) [16]	binding signal (plate reader) [17]	binding signal (plate reader) [18]	binding signal (plate reader) [19]	binding signal (plate reader) [20]	other results
B1	≥ 2 fold	0.01 µg/mL and ~0.06 nM	> 2 fold	no binding	3.9	3.96	3.98	3.72	3.54	3.99	3.88	0.123	0.405	3.76	3.91	3.92	3.96	3.88	3.96	4	fold decrease in fluorescence intensity on AQP3 siRNA cells against control siRNA cells [21]: ~2 fold
B2	≥ 2 fold	0.01 µg/mL and ~0.06 nM	> 2 fold	no binding	3.83	3.92	3.98	2.23	0.915	3.96	3.79	0.097	0.135	2.02	3.44	3.87	4	3.69	3.96	4	decrease in H2O2 uptake in PAM212 cells against no antibody control [22]: ~2 fold
B3	–	0.01 µg/mL and ~0.06 nM	–	no binding	2.65	3.9	3.94	0.733	0.627	3.92	3.8	0.048	0.053	0.824	3.16	3.75	3.99	3.76	3.94	3.9	binding result [23]: binds
